Holding throughout (experiment): two-hybrid library CCNG1;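 further: natural log of median RNA to DNA barcode read ratio; higher means stronger binding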
One test concerns the target T1, 4H3057-bA.
T1 chain: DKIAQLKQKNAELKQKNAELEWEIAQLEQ

The target of a further test is T2, 4H319-bA.
T2 chain: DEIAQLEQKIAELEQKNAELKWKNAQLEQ

The target in another test is T3, 4H492-bA.
T3 chain: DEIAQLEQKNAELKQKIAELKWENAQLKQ

Another test addresses T4, 4H40-bA.
T4 chain: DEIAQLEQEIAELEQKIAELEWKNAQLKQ

In the next test the target is T5, 4H477-bA.
T5 chain: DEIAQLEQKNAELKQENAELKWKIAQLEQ

In a further test the target is T6, O11-bA.
T6 chain: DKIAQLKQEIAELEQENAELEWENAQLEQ

For another test, the target named is T7, 4H348-bA.
T7 chain: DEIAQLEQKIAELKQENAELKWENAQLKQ

A further test has as its target T8, 4H2915-bA.
T8 chain: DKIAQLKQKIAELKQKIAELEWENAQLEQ

A further test addresses T9, 4H741-bA.
T9 chain: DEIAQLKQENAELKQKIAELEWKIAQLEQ

The target of the next test is T10, 4H3855-bN.
T10 chain: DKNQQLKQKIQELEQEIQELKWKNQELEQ

The next test deals with T11, 4H3277-bA.
T11 chain: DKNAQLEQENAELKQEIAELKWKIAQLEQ

Another test has as its target T12, 4H968-bA.
T12 chain: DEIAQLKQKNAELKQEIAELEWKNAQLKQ

Another test has as its target T13, 4H953-bA.
T13 chain: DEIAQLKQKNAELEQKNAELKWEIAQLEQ

For another test, the target named is T14, 4H855-bA.
T14 chain: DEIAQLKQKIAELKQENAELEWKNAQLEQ

For another test, the target named is T15, 4H918-bA.
T15 chain: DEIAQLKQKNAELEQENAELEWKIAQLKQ

2 molecules from paper PMC10397247 can be followed below.

With DKIAQLKQKIAELKQKIAELEWENAQLEQ [4H2915-bA], the interaction score with 4H3057-bA is -0.856; in the test with 4H319-bA, 1.12; with 4H492-bA, -1.03; in the test with 4H40-bA, 1.35; in the test with 4H477-bA, -1.05; with O11-bA it was 0.236. Moreover, the interaction score is -1.42 with 4H348-bA; 0.656 in the test with 4H2915-bA; -0.66 with 4H741-bA; 0.188 with 4H3855-bN; -1.17 in the test with 4H3277-bA.
Turning to DEIAQLKQKIAELKQENAELEWKNAQLEQ [4H855-bA], the interaction score was -0.685 with 4H968-bA; -3.09 with O11-bA; -1.71 with 4H953-bA; -0.844 in the test with 4H855-bA; -1.16 with 4H918-bA.
